From patent US20030007981A1 (UNIVERSITY OF SASKATCHEWAN, published 2003)

Molecular target: biotinylated bovine transferrin (bovine, UniProt Q29443 20-704, biotinylated (sites not given))
Assay: affinity chromatography: H. somnus total membranes mixed with biotinylated bovine transferrin, captured on streptavidin-agarose

biotinylated bovine transferrin, sequence (Q29443 20-704 limits assumed): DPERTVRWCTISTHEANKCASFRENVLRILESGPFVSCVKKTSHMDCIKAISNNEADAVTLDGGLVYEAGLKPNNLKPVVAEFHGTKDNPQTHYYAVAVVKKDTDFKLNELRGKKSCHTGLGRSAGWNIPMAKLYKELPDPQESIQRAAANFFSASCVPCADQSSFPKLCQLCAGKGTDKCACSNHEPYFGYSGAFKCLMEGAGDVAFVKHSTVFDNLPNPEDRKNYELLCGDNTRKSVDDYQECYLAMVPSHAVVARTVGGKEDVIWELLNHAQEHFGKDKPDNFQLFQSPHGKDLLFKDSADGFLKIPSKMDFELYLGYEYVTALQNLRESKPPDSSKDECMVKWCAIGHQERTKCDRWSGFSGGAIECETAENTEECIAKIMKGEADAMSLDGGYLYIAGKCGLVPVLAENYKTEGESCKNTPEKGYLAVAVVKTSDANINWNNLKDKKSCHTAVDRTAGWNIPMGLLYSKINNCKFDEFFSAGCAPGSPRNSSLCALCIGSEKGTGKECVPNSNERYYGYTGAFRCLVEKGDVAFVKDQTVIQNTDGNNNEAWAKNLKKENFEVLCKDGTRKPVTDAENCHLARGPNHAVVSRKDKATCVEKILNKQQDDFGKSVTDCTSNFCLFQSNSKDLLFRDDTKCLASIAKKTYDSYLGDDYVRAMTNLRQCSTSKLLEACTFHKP

B1: H. somnus transferrin-binding protein 1 (native, from strain HS25) (receptor)
chain: DTESPSSNTEAVLELEAIQVQAKHEISRHDNEVTGLGKVVKSSEDIDKELILNIRDLTRYDPGISVVEQGRGATSGYAMRGVDRNRVAMLVDGLGQAQSYSTLKSDANGGAINEIEYENIKSIELSKGSSSAEYGSGALGGAVGFRTKEADDVIKEGQNWGLNSKTAYSSKNSQFTQSVAGAFRVGGFDSLAIFTHRKGKETRVHPAAEEIQHTYQPLEGYFNRYEVDQNRNGKPVLANAYYILADECSNLSDPSCRHAKAKTNRVGAPENNPNWTPEEQAQAAKMPYPTRTASAKDYTGPDRISPNPMDYQSHSFFWKGGYRLSPNHYVGGVLEHTKQRYDIRDMTQRAYYTKEDICHSGSSCQTLDKNETDKGNFGITLTDNPLDGLVYDAGNQARGVRYGRGKFFNERHTKNRSGIFYRYENPDKNSWPDSLTLSIDRQDLKLSSRIHWTYCTDYPHVARCRASLDKPWSNYRTEKNDYQERLNLGQFNWEKTFNLGFTTHKVNIAAGFGTHRSTLQHGDLYAEYVTLPPYTEEKVYGEDNKVKQNPTAEEKEKLQYGNGSYDKPRVYRRKNTPELKTVNGCNETAGDNRDCSPRVITGRQYYLALRNHIAFGEWADLGLGVRYDNHTFRSNDPWTKGGNYHNWSWNAGVSLKPTRHFVVSYRVSSGFRVPAFYELYGVRTGASGKDNPLTQKEFLSRKPLKSEKAFNQEIGLAVQGDFGVIETSFFQNNYKNLLARADKYVEGLGYVTDFYNTQDVKLNGINILGRIYWEGISDRLPEGLYSTLAYNRINIKARKLHDNFTNVSEPTLEAVQPGRIIASIGYDDPEGRWGLNLSGTYSQAKQRDEVVGEKVFGKGGSIKRTINSKRTRAWYIYDLTAYYTWKEKFTLRAGIYNLTNRKYSTWESVRQSAANAVNQDLGTRSARFAARGRNFTVSMEMKF
notes: also called Tbp1; native H. somnus Tbp1
B1: binds.

B2: H. somnus transferrin-binding protein 2 (native, from strain HS25) (receptor)
chain: CSSGKGGFDLDDVEHTPPSSSGSSRPTYQDVPTGQRQQEIVEEINSPALGYATEIPRRNISPMPTTGTKESNARVAITAQQVAPLSMPFNSIKEDFIKRLIAENTKKNARGRDVKYFDDTDDVLFAHDGSNLAHKRDLQYVRVGYVLGTRKIELVFSHDKKTRDQFPAGWVGYVFYQGTSPAVTLPTQTVTYKGYWDFVSDAFNERTLAEDFTQENSSATSNIPGNQIGATSMDALVNRKVSGEKINIAHSAEFTADFGSKKLSGELKSNGYVSRIENEQQDVKTRYKIDADIKGNRFVGSATAQEKSHTIFGKDADKRLEGGFFGPKAEELAGKFLTDDNSLFVVFGAKRESKGDEKLETRFDAVKISTDSNKLEKETMDTFGNAAYLVLDGRQFPLVPESNAGTTGAGNTGKNEFISTIDGSHLNKTNHENHKKYKVTVCCSNLVYVKFGSYGEQTTANDASNSTAGAATTHNSTLTNGHLFLTGERTSLTDMAKQSGAAKYIGTWQANFLSSKGQVGSVDAGDPRNDSGKSRAEFDVNFGGKTVTGKFFDADGIQPALTMDSTKIEGNGFSGTAKTTGSLQLDKGSTGAGITVTFTDAKVDGAFYGPNAEEIGGTITSNGTGDKVGGVFGAKRQELSQQK
modifications: lipid modification (lipoprotein; residue not stated)
notes: The signal peptide (residues 1-19) is stated; also called Tbp2; protein with relative molecular weight of 80,000
B2: binds.
